Data reported in US20260347498 (published 2026).
Residue numbers refer to the chain shown, from its start. Each block holds one binder with its values, some of them ahead of it.

How the values were obtained:
[1] = target: T1, human EpCAM on DiFi cells (human); assay: FACS, DiFi cells
T1 chain: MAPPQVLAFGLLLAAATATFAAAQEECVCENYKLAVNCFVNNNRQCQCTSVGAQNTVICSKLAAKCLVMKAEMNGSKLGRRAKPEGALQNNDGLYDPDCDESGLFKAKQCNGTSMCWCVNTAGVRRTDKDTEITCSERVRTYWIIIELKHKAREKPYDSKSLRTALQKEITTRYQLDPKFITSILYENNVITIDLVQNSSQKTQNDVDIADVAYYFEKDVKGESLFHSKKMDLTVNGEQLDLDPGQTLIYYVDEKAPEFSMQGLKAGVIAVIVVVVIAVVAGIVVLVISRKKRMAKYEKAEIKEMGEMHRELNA

FcγRIa = target: T2, FcγRIa (human, UniProt P12314); assay: SPR
T2 chain: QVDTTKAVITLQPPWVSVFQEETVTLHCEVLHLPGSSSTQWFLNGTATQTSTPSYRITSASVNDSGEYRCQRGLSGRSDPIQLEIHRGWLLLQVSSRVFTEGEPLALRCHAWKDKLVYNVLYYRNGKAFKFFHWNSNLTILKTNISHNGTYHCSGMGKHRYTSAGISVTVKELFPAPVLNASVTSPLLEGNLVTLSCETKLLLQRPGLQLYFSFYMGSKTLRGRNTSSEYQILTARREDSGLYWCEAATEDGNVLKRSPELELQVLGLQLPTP

FcγRIIIa F158 = FcγRIIIa F158 (human, UniProt P08637); assay: SPR
FcγRIIIa F158, sequence (P08637 17-208): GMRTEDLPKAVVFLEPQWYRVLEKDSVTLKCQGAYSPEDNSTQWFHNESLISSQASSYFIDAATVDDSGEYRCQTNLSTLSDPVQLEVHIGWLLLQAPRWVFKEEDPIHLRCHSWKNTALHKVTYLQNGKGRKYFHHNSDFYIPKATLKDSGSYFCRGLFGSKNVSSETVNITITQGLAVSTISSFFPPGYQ

FcγRIIa H131 = target: T3, FcγRIIa H131 (human, UniProt P12318); assay: SPR
T3 chain: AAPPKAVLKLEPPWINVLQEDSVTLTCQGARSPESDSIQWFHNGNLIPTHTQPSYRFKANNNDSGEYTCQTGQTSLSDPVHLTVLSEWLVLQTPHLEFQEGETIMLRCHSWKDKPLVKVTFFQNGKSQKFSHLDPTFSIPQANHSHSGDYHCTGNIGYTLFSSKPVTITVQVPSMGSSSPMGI

human FcRn [2] = target: T4, human FcRn (human, UniProt P55899); assay: SPR, pH 7.4
FcγRIIb = target: T5, FcγRIIb (human, UniProt P31994); assay: SPR
T5 chain: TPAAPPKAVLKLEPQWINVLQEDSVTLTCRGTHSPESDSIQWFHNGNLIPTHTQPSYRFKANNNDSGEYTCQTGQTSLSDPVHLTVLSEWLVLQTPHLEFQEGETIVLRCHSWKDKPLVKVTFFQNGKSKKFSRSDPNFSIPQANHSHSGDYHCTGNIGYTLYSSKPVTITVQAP

FcγRIIa R131 = target: T6, FcγRIIa R131 (human, UniProt P12318); assay: SPR
T6 chain: T3 chain with H132R

FcγRIIIa V158 = FcγRIIIa V158 (human, UniProt P08637); assay: SPR
FcγRIIIa V158, sequence (P08637 17-208 F176V): as the sequence (P08637 17-208) above, with F160V counted along it

human FcRn [3] = target: T4, human FcRn; assay: SPR, pH 6.0
[4] = target: T7, human EpCAM extracellular domain (human); assay: BLI, 30C, monovalent
T7 chain: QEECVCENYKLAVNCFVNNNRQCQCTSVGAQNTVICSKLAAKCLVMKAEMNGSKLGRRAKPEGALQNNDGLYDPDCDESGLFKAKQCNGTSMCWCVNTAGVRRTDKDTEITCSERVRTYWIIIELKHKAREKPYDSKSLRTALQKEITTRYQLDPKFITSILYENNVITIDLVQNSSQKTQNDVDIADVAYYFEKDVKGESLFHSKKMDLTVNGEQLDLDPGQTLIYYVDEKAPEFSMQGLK

- binding result [1]: no binding
B1: bsIgG1-b12-FERL/b12-FEAR (antibody)
chain 1: QVQLVQSGAEVKKPGASVKVSCQASGYRFSNFVIHWVRQAPGQRFEWMGWINPYNGNKEFSAKFQDRVTFTADTSANTAYMELRSLRSADTAVYYCARVGPYSWDDSPQDNYYMDVWGKGTTVIVSSASTKGPSVFPLAPSSKSTSGGTAALGCLVKDYFPEPVTVSWNSGALTSGVHTFPAVLQSSGLYSLSSVVTVPSSSLGTQTYICNVNHKPSNTKVDKRVEPKSCDKTHTCPPCPAPEFERGPSVFLFPPKPKDTLMISRTPEVTCVVVDVSHEDPEVKFNWYVDGVEVHNAKTKPREEQYNSTYRVVSVLTVLHQDWLNGKEYKCKVSNKALPAPIEKTISKAKGQPREPQVYTLPPSREEMTKNQVSLTCLVKGFYPSDIAVEWESNGQPENNYKTTPPVLDSDGSFLLYSKLTVDKSRWQQGNVFSCSVMHEALHNHYTQKSLSLSPG
chain 2: EIVLTQSPGTLSLSPGERATFSCRSSHSIRSRRVAWYQHKPGQAPRLVIHGVSNRASGISDRFSGSGSGTDFTLTITRVEPEDFALYYCQVYGASSYTFGQGTKLERKRTVAAPSVFIFPPSDEQLKSGTASVVCLLNNFYPREAKVQWKVDNALQSGNSQESVTEQDSKDSTYSLSSTLTLSKADYEKHKVYACEVTHQGLSSPVTKSFNRGEC
chain 3: B1 chain 1 with R246G, D275A, L415F, K419R
chain 4: B1 chain 2

- binding result (FcγRIa): no binding
- binding result (FcγRIIIa F158): no binding
- binding result (FcγRIIa H131): no binding
- binding result (human FcRn [2]): no binding
- binding result (FcγRIIb): no binding
- binding result (FcγRIIa R131): no binding
- binding result (FcγRIIIa V158): no binding
- Kd (human FcRn [3]): 375 nM
B2: IgG1-CD137-009-HC7LC2-FEAR (antibody)
chain 1: EVQLVESGGGLVQPGRSLRLSCTASGFSLNDYWMSWVRQAPGKGLEWVGYIDVGGSLYYAASVKGRFTISRDDSKSIAYLQMNSLKTEDTAVYYCARGGLTYGFDLWGQGTLVTVSSASTKGPSVFPLAPSSKSTSGGTAALGCLVKDYFPEPVTVSWNSGALTSGVHTFPAVLQSSGLYSLSSVVTVPSSSLGTQTYICNVNHKPSNTKVDKRVEPKSCDKTHTCPPCPAPEFEGGPSVFLFPPKPKDTLMISRTPEVTCVVVAVSHEDPEVKFNWYVDGVEVHNAKTKPREEQYNSTYRVVSVLTVLHQDWLNGKEYKCKVSNKALPAPIEKTISKAKGQPREPQVYTLPPSREEMTKNQVSLTCLVKGFYPSDIAVEWESNGQPENNYKTTPPVLDSDGSFFLYSRLTVDKSRWQQGNVFSCSVMHEALHNHYTQKSLSLSPG
chain 2: DIVMTQSPSSLSASVGDRVTITCQASEDISSYLAWYQQKPGKAPKRLIYGASDLASGVPSRFSASGSGTDYTFTISSLQPEDIATYYCHYYATISGLGVAFGGGTKVEIKRTVAAPSVFIFPPSDEQLKSGTASVVCLLNNFYPREAKVQWKVDNALQSGNSQESVTEQDSKDSTYSLSSTLTLSKADYEKHKVYACEVTHQGLSSPVTKSFNRGEC

- binding result [1]: no binding
B3: bsIgG1-b12-FERL/CD137-009-HC7LC2-FEAR (antibody)
chain 1: B1 chain 1
chain 2: B1 chain 2
chain 3: B2 chain 1
chain 4: B2 chain 2

- binding result (FcγRIa): no binding
- binding result (FcγRIIIa F158): no binding
- binding result (human FcRn [2]): no binding
- binding result (FcγRIIIa V158): no binding
- Kd (human FcRn [3]): 230 nM
B4: IgG1-EpCAM-A37-FERL (antibody)
chain 1: not shown
chain 2: EIELTQSPGTLSLSPGERATLSCRASQTISNNYLAWYQQKRGQAPRLLIYAASSRATGIPDRFSGTGSGTDFTLTISRLEPEDFAVYYCAQGELYPRQFGGGTKLEIKRTVAAPSVFIFPPSDEQLKSGTASVVCLLNNFYPREAKVQWKVDNALQSGNSQESVTEQDSKDSTYSLSSTLTLSKADYEKHKVYACEVTHQGLSSPVTKSFNRGEC

- Kd [4]: 20 nM
B5: BisG1-b12-FEAL/EpCAM-A37-FEAR (EpCAM arm) (antibody, V domains shown)
VH: QVQLVQSGAEVKKPGSSVRVSCKASGGTFSSYAISWVRQAPGQGLEWMGGIIPIFGTANYAQKFQGRVTITADESTSTAYMELSSLRSEDTAVYYCARDPFLHYWGQGTLVTVSS
VL: EIELTQSPGTLSLSPGERATLSCRASQTISNNYLAWYQQKRGQAPRLLIYAASSRATGIPDRFSGTGSGTDFTLTISRLEPEDFAVYYCAQGELYPRQFGGGTKLEIK

- Kd [4]: 3.2 nM
B6: BisG2amm-EpCAM-323-A3-AALT/m4-1BB-3H3-AAKR (EpCAM arm) (antibody, V domains shown)
VH: QIQLVQSGPELKKPGETVKISCKASGYTFTNYGMNWVRQASGEGLKWMGWINTYTGEPTYGEDFKGRFAFSLETSASTAYLQINNLKNEDTATYFCARFGNYVDYWGQGTTLTVSS
VL: DIVMTQAAFSNPVTLGTSASISCRSSKNLLHSNGITYLYWYLQKPGQSPHLLIYQMSNLASGVPDRFSSSGSGTDFTLRISRVEAEDVGVYYCAQNLEIPRTFGGGTKLEIKR
